Laboratory results from the supplement of paper PMC12764529.
± gives the half width of the 95% confidence interval.

Key:
[1] = folding stability dG unfold from trypsin proteolysis; higher = more stable
Outline: (§1)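 Bayesian fitting of sequencing counts gave K50 for each design. Unfolding free energy followed by setting this against a sequence-predicted unfolded-state K50 and a shared folded-state K50, either per protease or with trypsin and chymotrypsin combined. The designs, under 80 residues and lacking cysteine, were digested in a PA-tagged cDNA display format at 11 threefold-diluted protease concentrations and without protease, and only those with AlphaFold2 dimer inter-PAE above 15 were kept.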

[2] = folding stability dG unfold from chymotrypsin proteolysis; higher = more stable
Outline: as §1

[3] = folding stability dG unfold (combined trypsin and chymotrypsin); higher = more stable
Outline: as §1

| Sequence | folding stability dG unfold [1] | folding stability dG unfold [2] | folding stability dG unfold [3] |
| --- | --- | --- | --- |
| SMPIEVRVDLERLEDGTLLAVIEIRHPDVQVAEDAAIELARELFPEDVELRIETTPDGRVIAPILLPLPESA [r9_646_TrMRF] | 3.14 ± 0.14 kcal/mol | 1.74 ± 0.17 kcal/mol | 2.58 ± 0.22 kcal/mol |
| SMPKKIIVLEVDEEEIKEFLEKLELGEDTEVKILLSFPDGKTALLEIGPNEIKSIKPIDAIPEKAYIVIASA [r9_849_TrMRF] | 1.71 ± 0.14 kcal/mol | 0.755 ± 0.14 kcal/mol | 1.08 ± 0.2 kcal/mol |
| SMPLPFEATVTVPVRDEETGETYTVTVKVEAVNPAVPRPLPDGSIEYEPIPLETVLEIVEKAAEELAKALSA [r9_698_TrMRF] | 1.27 ± 0.074 kcal/mol | 1.55 ± 0.058 kcal/mol | 1.56 ± 0.14 kcal/mol |
| SMQINVERNPENGTVIIHIPMEDMPPENIREILKDLPPNNKRVTIHMHDPPYMRWLKELAKEKGFPIKITSA [r9_919_TrROS] | 0.824 ± 0.098 kcal/mol | 0.453 ± 0.21 kcal/mol | 0.623 ± 0.15 kcal/mol |
| SMRVVLVRPVPPELKEAELELRLPLPDGSEVEVKAETGEDFVVVTIELDDESAAEAVVEELEKLLEELLGSA [r9_790_TrMRF] | 0.926 ± 0.019 kcal/mol | 1.17 ± 0.034 kcal/mol | 1.13 ± 0.053 kcal/mol |
| SMSEKVEIDPAAIAEALKAGTEYEFDIKVTVTLFDPSNGKKVSTEEKVVKVKLKIPPPSPLPDPKNGYLLSA [r9_396_JUSTAS] | 1.11 ± 0.038 kcal/mol | 1.4 ± 0.079 kcal/mol | 1.29 ± 0.2 kcal/mol |
| SMSEVVEESEFNGEKVITIKVTLPDGTPVTVTITLSPEGEGTVTTVPPSSSTSTTTTVPVSQVDEVLEALSA [r9_91_JUSTAS] | 1.95 ± 0.061 kcal/mol | 1.4 ± 0.031 kcal/mol | 1.61 ± 0.074 kcal/mol |
| SMSPEARALARELAERLRELFPGAEIEIRVEVEVNEDGEVTIRVEIRVRPAPPPEVRVVRDEDGRERRLRSA [r9_82_TrROS_Hall] | 1.09 ± 0.1 kcal/mol | 2.04 ± 0.04 kcal/mol | 1.8 ± 0.074 kcal/mol |
| SMSRPVEVEFELPLEGEGPVRLRATLVVDPESGVVEIPVRARFPEREEDVDLPPELLERLARRVLEELGGSA [r9_1136_TrMRF] | 0.744 ± 0.031 kcal/mol | 1.25 ± 0.034 kcal/mol | 1.1 ± 0.034 kcal/mol |
| SMTIEGMSPREAVRNIIEEFIEMFEANGNPPMPIKIRFPGNGKPIYEFPIQSKEQLLDQIENGVPVSIEFSA [r9_718_TrROS] | 0.604 ± 0.027 kcal/mol | -0.498 ± 0.18 kcal/mol | 0.183 ± 0.1 kcal/mol |
| SMTIKLPSKDFKLETLPDGTIKLTVKEPDGTVVTYTFPKGDKITKIEKITPDTIKLTFEKKPRLNPEILLSA [r9_501_JUSTAS] | 2.16 ± 0.097 kcal/mol | 3.65 ± 0.053 kcal/mol | 3.07 ± 0.22 kcal/mol |
| SMTIRVEGVPPGVTAEELAARLRAELEAAGYEVTSIKVTRRADGSLVVEIEVKPAPPPEPVEVVEEREEESA [r9_953_TrROS_Hall] | 3.4 ± 0.13 kcal/mol | 3.75 ± 0.16 kcal/mol | 3.62 ± 0.17 kcal/mol |
| SMTITFKTEEEAKKAAEELLKELEKKLKPGQKIKITVTTEDGKTITIEIEIKPPKKEVEVDEETGELKEKSA [r9_596_TrROS_Hall] | 0.898 ± 0.073 kcal/mol | 2.26 ± 0.081 kcal/mol | 1.97 ± 0.18 kcal/mol |
| SMTITIVVEAPPEEAKEKAEELEKELKEKLDKLREEAKKKGLSEEEIEEELKIKIKVVVVSKEDLEKLKPSA [r9_961_TrROS_Hall] | 0.989 ± 0.082 kcal/mol | -0.317 ± 0.11 kcal/mol | 0.431 ± 0.13 kcal/mol |
| SMTLTETKVLTTETLSGEEFAKRSGVPVEEIRKSGVKYNVTVTPVEVTYYDPETGKTYKRTSTTVTITPESA [r9_382_JUSTAS] | 0.354 ± 0.083 kcal/mol | 0.842 ± 0.11 kcal/mol | 0.686 ± 0.073 kcal/mol |
| SMTLTLEDGKLTLTVTETRTTVERDAADPGKWTTRTETRTVTLTLPLEDLEALKKLLEALPPGARVELVPSA [r9_476_TrROS_Hall] | 3.23 ± 0.09 kcal/mol | 4.9 ± 0.26 kcal/mol | 3.91 ± 0.29 kcal/mol |
| SMTLVLENEDGSLYRIEFDEETGEIYIYNAETGEKYRITFKDGKTEEINAKDLSLEELKALPGLKIEPVPSA [r9_205_TrROS_Hall] | 2.74 ± 0.061 kcal/mol | 3.285 ± 0.023 kcal/mol | 3.13 ± 0.056 kcal/mol |
| SMTTTTLPDGTTVTTLSDGTVKTVTHYPDSVVTETSPITYKLPDGREFTTKEEAEAYEKETGIPVSPALASA [r9_660_JUSTAS] | 0.62 ± 0.036 kcal/mol | 0.255 ± 0.23 kcal/mol | 0.4 ± 0.16 kcal/mol |
| SMTVTTDPSSLTFTLPPTYTSVEQAREALEELGFKLPSSVKSITIESVDEGKNLNTITVTFDDPEALKKLSA [r9_820_JUSTAS] | 0.74 ± 0.03 kcal/mol | 0.922 ± 0.089 kcal/mol | 0.913 ± 0.082 kcal/mol |
| SMTVVTVEKTPDGGVTITVYVPETGEEVEIPVTDPEVQKKATEDPNTTVKVPKEVLESFYPDRITSLSYTSA [r9_390_JUSTAS] | 0.134 ± 0.098 kcal/mol | -0.169 ± 0.22 kcal/mol | 0.0747 ± 0.19 kcal/mol |
| SMVIEIPDGTPLEEIIKKVKEAKEKGEPMEVVVTVPNDESVIQALKEAGFEVEVEKDEVKNVTLYKVKLPSA [r9_759_JUSTAS] | 2.7 ± 0.15 kcal/mol | 2.53 ± 0.025 kcal/mol | 2.59 ± 0.076 kcal/mol |
